Laboratory results as given in the Human Domainome abundance scans (Beltran et al. 2025).
± gives the uncertainty stated by the source.

B1: Activity-dependent neuroprotector homeobox protein, residues 770 to 810; numbered along this chain, Q9H2P0 (parent)
chain: FLTKYFNKQPYPTRREIEKLAASLWLWKSDIASHFSNKRKK
B2: Homeobox protein cut-like 1, residues 548 to 629; numbered along this chain, P39880 (parent)
chain: GEEMDTAEIARQVKEQLIKHNIGQRIFGHYVLGLSQGSVSEILARPKPWNKLTVRGKEPFHKMKQFLSDEQNILALRSIQGR

Variants of: B1
Experiment: abundance fitness (aPCA) (normalised: wild type 0, dead -1); higher = more abundant; growth selection in yeast, the domain comes from the species named
Conditions: Homo sapiens

With FLTKYFNKQPYPTRREIEKLAASLWCWKSDIASHFSNKRKK [L26C] as the variant, how does the abundance fitness read?
The abundance fitness was -0.014 ± 0.068.

For FLTKYFNKQPYPTRREIEKLAASLWLWKSDIASHFSMKRKK [N37M], which abundance fitness is on record?
The abundance fitness was 0.013 ± 0.068.

Which abundance fitness does the source give for FLTKYFNKQPYPTRREIEKLAASLWMWKSDIASHFSNKRKK [L26M] here?
The abundance fitness was 0.115 ± 0.084.

For FLTKYFNKQPYPTRREIEKLAASDWLWKSDIASHFSNKRKK [L24D], which abundance fitness is on record?
The abundance fitness was -0.033 ± 0.19.

With FLTKYFNKQPYPTRREIEKLAASLWLWKSKIASHFSNKRKK [D30K] as the variant, how does the abundance fitness read?
Its abundance fitness is 0.071 ± 0.1.

For FLTKYFNKIPYPTRREIEKLAASLWLWKSDIASHFSNKRKK [Q9I], which abundance fitness is on record?
The abundance fitness was -0.074 ± 0.1.

Which abundance fitness does the source give for FLTKYFNKQPYPTRREIEKLAASLWLWKSDIASHFSNKSKK [R39S] here?
Its abundance fitness is -0.085 ± 0.051.

With FLTKYRNKQPYPTRREIEKLAASLWLWKSDIASHFSNKRKK [F6R] as the variant, how does the abundance fitness read?
Its abundance fitness is -0.163 ± 0.044.

Which abundance fitness does the source give for FLTKGFNKQPYPTRREIEKLAASLWLWKSDIASHFSNKRKK [Y5G] here?
The abundance fitness was -0.812 ± 0.49.

For FLTKYFNKQPYPTRREIEKLAASLWLWKSDIANHFSNKRKK [S33N], which abundance fitness is on record?
Its abundance fitness is -0.284 ± 0.13.

With FLTKYFNKQPYPTRREIEKLAASLWLWKSDIASHFSLKRKK [N37L] as the variant, how does the abundance fitness read?
Its abundance fitness is 0.061 ± 0.05.

Which abundance fitness does the source give for FLTKYFNKQPYPTRREIEKLAASLWKWKSDIASHFSNKRKK [L26K] here?
Its abundance fitness is 0.341 ± 0.063.

Which abundance fitness does the source give for FLTKYFNKQPYPTRREIEKLAASLWLWKSDIRSHFSNKRKK [A32R] here?
The abundance fitness was 0.029 ± 0.064.

For FLTKYFNKQPYPTRREIEKLAASLWTWKSDIASHFSNKRKK [L26T], which abundance fitness is on record?
The abundance fitness was 0.022 ± 0.066.

With FLTKYFNKQPYPTRIEIEKLAASLWLWKSDIASHFSNKRKK [R15I] as the variant, how does the abundance fitness read?
Its abundance fitness is -0.252 ± 0.14.

For FLTKYFNKQPYPTRREIEKLAASLWLWKSPIASHFSNKRKK [D30P], which abundance fitness is on record?
Its abundance fitness is 0.056 ± 0.064.

With FLTKYFNTQPYPTRREIEKLAASLWLWKSDIASHFSNKRKK [K8T] as the variant, how does the abundance fitness read?
Its abundance fitness is -0.951 ± 0.094.

Which abundance fitness does the source give for FLTKYFNKQPYPHRREIEKLAASLWLWKSDIASHFSNKRKK [T13H] here?
The abundance fitness was -0.135 ± 0.079.

Which abundance fitness does the source give for FLTKYFNKQPYPQRREIEKLAASLWLWKSDIASHFSNKRKK [T13Q] here?
Its abundance fitness is -0.098 ± 0.084.

For FLTKYFNKPPYPTRREIEKLAASLWLWKSDIASHFSNKRKK [Q9P], which abundance fitness is on record?
Its abundance fitness is -0.698 ± 0.069.

For FLTKYFNKQPYPTRREIEKRAASLWLWKSDIASHFSNKRKK [L20R], which abundance fitness is on record?
The abundance fitness was -0.144 ± 0.064.

Which abundance fitness does the source give for FLTKYFNKQPYPTRREIEKLAASKWLWKSDIASHFSNKRKK [L24K] here?
Its abundance fitness is -0.321 ± 0.088.

With FLTKYFNKQPYPTRREIEKLAASLWLWKSDIASHFSNSRKK [K38S] as the variant, how does the abundance fitness read?
Its abundance fitness is -0.183 ± 0.049.

Which abundance fitness does the source give for FLTKYFNKQPYPTRREIEKLAASLWLWKSDIASCFSNKRKK [H34C] here?
Its abundance fitness is 0.069 ± 0.056.

For MLTKYFNKQPYPTRREIEKLAASLWLWKSDIASHFSNKRKK [F1M], which abundance fitness is on record?
Its abundance fitness is -0.176 ± 0.15.

With FLTKYFNKQPYPTRREIEKLAASCWLWKSDIASHFSNKRKK [L24C] as the variant, how does the abundance fitness read?
The abundance fitness was -0.122 ± 0.095.

For FLTKYFNKQGYPTRREIEKLAASLWLWKSDIASHFSNKRKK [P10G], which abundance fitness is on record?
The abundance fitness was -0.129 ± 0.084.

Which abundance fitness does the source give for FLTKYFNKQPYPTRREIEKLAGSLWLWKSDIASHFSNKRKK [A22G] here?
The abundance fitness was -0.058 ± 0.062.

Which abundance fitness does the source give for FLTKYFNKQPYPTRREIEKLAACLWLWKSDIASHFSNKRKK [S23C] here?
The abundance fitness was -0.119 ± 0.082.

For FLTKYFNKQPYPTRREIEKLAASLWPWKSDIASHFSNKRKK [L26P], which abundance fitness is on record?
Its abundance fitness is 0.343 ± 0.058.

With FLTKYFNKQPYPTRREIEKLAASLWLWKSDIASHFSNKRKL [K41L] as the variant, how does the abundance fitness read?
The abundance fitness was -0.4 ± 0.097.

Which abundance fitness does the source give for FLTKYFNKQPYPKRREIEKLAASLWLWKSDIASHFSNKRKK [T13K] here?
Its abundance fitness is -0.046 ± 0.092.

For FLTKYFNFQPYPTRREIEKLAASLWLWKSDIASHFSNKRKK [K8F], which abundance fitness is on record?
The abundance fitness was -1.13 ± 0.18.

With FLTKYFNKQPYPTRREIEKLAASLWLWKSDIASHFSNKRKM [K41M] as the variant, how does the abundance fitness read?
The abundance fitness was 0.082 ± 0.12.

With FLTKYFNKQPYPTRREIEKLAASLWLWQSDIASHFSNKRKK [K28Q] as the variant, how does the abundance fitness read?
Its abundance fitness is -0.184 ± 0.06.

For FLTKYFNKQPYPTRREIEKLASSLWLWKSDIASHFSNKRKK [A22S], which abundance fitness is on record?
The abundance fitness was -0.117 ± 0.059.

Which abundance fitness does the source give for FLTKYFNKQPYPTRREIEKLARSLWLWKSDIASHFSNKRKK [A22R] here?
The abundance fitness was -0.027 ± 0.052.

Which abundance fitness does the source give for FLTKYFNMQPYPTRREIEKLAASLWLWKSDIASHFSNKRKK [K8M] here?
Its abundance fitness is -0.639 ± 0.33.

Which abundance fitness does the source give for FLTKYFNKQPYPTRREIEKLAASLYLWKSDIASHFSNKRKK [W25Y] here?
The abundance fitness was -0.233 ± 0.22.

Which abundance fitness does the source give for FLTKYFNKQPYPTRREIEKLAAPLWLWKSDIASHFSNKRKK [S23P] here?
The abundance fitness was -0.12 ± 0.061.

Which abundance fitness does the source give for FLTKYFNKQPYPFRREIEKLAASLWLWKSDIASHFSNKRKK [T13F] here?
Its abundance fitness is 0.044 ± 0.29.

With FLTKYFNKQPYPTAREIEKLAASLWLWKSDIASHFSNKRKK [R14A] as the variant, how does the abundance fitness read?
Its abundance fitness is -0.595 ± 0.22.

For FLTKYFNKQPYPTRREIEKLQASLWLWKSDIASHFSNKRKK [A21Q], which abundance fitness is on record?
Its abundance fitness is -0.328 ± 0.17.

With FLTKYFNHQPYPTRREIEKLAASLWLWKSDIASHFSNKRKK [K8H] as the variant, how does the abundance fitness read?
Its abundance fitness is -1.09 ± 0.1.

Which abundance fitness does the source give for FLTKYFNKQPYPTRREIEKLAASLMLWKSDIASHFSNKRKK [W25M] here?
The abundance fitness was -0.009 ± 0.1.

For FLMKYFNKQPYPTRREIEKLAASLWLWKSDIASHFSNKRKK [T3M], which abundance fitness is on record?
Its abundance fitness is -0.395 ± 0.12.

Which abundance fitness does the source give for FLTKYFNKQPYPTRREIEKLAASLWLWKSDIASHKSNKRKK [F35K] here?
The abundance fitness was -0.211 ± 0.08.

Which abundance fitness does the source give for FLTKYFNKQPYPTRREIEKLAASLWLWKSDIASHFSNKCKK [R39C] here?
The abundance fitness was -0.189 ± 0.11.

For FLTKYFGKQPYPTRREIEKLAASLWLWKSDIASHFSNKRKK [N7G], which abundance fitness is on record?
Its abundance fitness is -0.365 ± 0.067.

Which abundance fitness does the source give for FLTKNFNKQPYPTRREIEKLAASLWLWKSDIASHFSNKRKK [Y5N] here?
The abundance fitness was -0.564 ± 0.25.

With FNTKYFNKQPYPTRREIEKLAASLWLWKSDIASHFSNKRKK [L2N] as the variant, how does the abundance fitness read?
The abundance fitness was -0.555 ± 0.27.

With FLTKYFNKQPYPTRREIEKLAAGLWLWKSDIASHFSNKRKK [S23G] as the variant, how does the abundance fitness read?
The abundance fitness was -0.182 ± 0.094.

For FLTKYFNKQPYPTRREIEKLAASLWLWKSDIASHFSNKRKI [K41I], which abundance fitness is on record?
The abundance fitness was -0.277 ± 0.1.

With FLTKYFNKQPYPTRREKEKLAASLWLWKSDIASHFSNKRKK [I17K] as the variant, how does the abundance fitness read?
The abundance fitness was -0.404 ± 0.09.

Variants of: B2
Experiment: as above
Conditions: Homo sapiens

Which abundance fitness does the source give for AEEMDTAEIARQVKEQLIKHNIGQRIFGHYVLGLSQGSVSEILARPKPWNKLTVRGKEPFHKMKQFLSDEQNILALRSIQGR [G1A] here?
Its abundance fitness is -0.064 ± 0.036.

For CEEMDTAEIARQVKEQLIKHNIGQRIFGHYVLGLSQGSVSEILARPKPWNKLTVRGKEPFHKMKQFLSDEQNILALRSIQGR [G1C], which abundance fitness is on record?
The abundance fitness was -0.026 ± 0.061.

With DEEMDTAEIARQVKEQLIKHNIGQRIFGHYVLGLSQGSVSEILARPKPWNKLTVRGKEPFHKMKQFLSDEQNILALRSIQGR [G1D] as the variant, how does the abundance fitness read?
The abundance fitness was 0.029 ± 0.052.

With EEEMDTAEIARQVKEQLIKHNIGQRIFGHYVLGLSQGSVSEILARPKPWNKLTVRGKEPFHKMKQFLSDEQNILALRSIQGR [G1E] as the variant, how does the abundance fitness read?
Its abundance fitness is -0.036 ± 0.036.

With FEEMDTAEIARQVKEQLIKHNIGQRIFGHYVLGLSQGSVSEILARPKPWNKLTVRGKEPFHKMKQFLSDEQNILALRSIQGR [G1F] as the variant, how does the abundance fitness read?
The abundance fitness was -0.104 ± 0.19.

With HEEMDTAEIARQVKEQLIKHNIGQRIFGHYVLGLSQGSVSEILARPKPWNKLTVRGKEPFHKMKQFLSDEQNILALRSIQGR [G1H] as the variant, how does the abundance fitness read?
Its abundance fitness is -0.289 ± 0.5.
